Experimental data from patent publication US20020049180.

Key:
[1] = biological target: GST-fusion protein containing amino acids 227-325 of KIAA0175 (UniProt Q14680)
[2] = biological target: GST-fusion protein containing amino acids 327-517 of KIAA0175 (UniProt Q14680)
GST-Chk2(1-222) = GST-Chk2(1-222) (UniProt O96017)
[3] = biological target: GST-fusion protein containing amino acids 42-182 of KIAA0175 (UniProt Q14680)
[4] = biological target: KIAA0175 (327-517) with serine 391 mutated to alanine (UniProt Q14680)
GST-p53 (1-106) = GST-p53 (1-106) (UniProt P04637)
GST-hDM2 (330-491) = GST-hDM2 (330-491) (UniProt Q00987)

Ataxia telangiectasia mutated (ATM)
in vitro phosphorylation by ATM immunoprecipitates [1]: amino acids 227-325 with no SQ sites, were not phosphorylated
in vitro phosphorylation by ATM immunoprecipitates [2]: A fusion including amino acids 327-517 harboring S^391Q was a substrate for ATM
in vitro phosphorylation by ATM immunoprecipitates (GST-Chk2(1-222)): KIAA0175 (327-517) phosphorylation was comparable to that seen with several known substrates of ATM included in the same assay, ... GST-Chk2(1-222)
in vitro phosphorylation by ATM immunoprecipitates [3]: amino acid 42-182 (containing S100Q and S^125Q) ... were not phosphorylated
irradiation induced phosphorylation by ATM [4]: Mutation of serine 391 to alanine completely abolished the irradiation induced phosphorylation by ATM
in vitro phosphorylation by ATM immunoprecipitates (GST-p53 (1-106)): KIAA0175 (327-517) phosphorylation was comparable to that seen with several known substrates of ATM included in the same assay, GST-p53 (1-106)
in vitro phosphorylation by ATM immunoprecipitates (GST-hDM2 (330-491)): KIAA0175 (327-517) phosphorylation was comparable to that seen with several known substrates of ATM included in the same assay, ... GST-hDM2 (330-491)
